Drawing on publication PMC2213055 (The Journal of Experimental Medicine, 2005), this text covers Kd for one molecule.

The term Kd denotes the free concentration of one partner at which half of the binding sites on the other are occupied at equilibrium, for simple one-to-one binding. Higher therefore signals a looser complex.

One test addresses MSH2–MSH3 heterodimer (human, UniProt P43246 1-934; P20585 1-1137). The test is described as follows: ELISA.
The target in the next test is MSH2–MSH6 heterodimer (human, UniProt P43246 1-934; P52701 1-1360). The test is described as follows: ELISA. In general terms: An ELISA detects its analyte on a solid surface through an enzyme-linked reagent.
MSH2–MSH6 heterodimer, sequence (P43246 whole entry, chain 1 of 2): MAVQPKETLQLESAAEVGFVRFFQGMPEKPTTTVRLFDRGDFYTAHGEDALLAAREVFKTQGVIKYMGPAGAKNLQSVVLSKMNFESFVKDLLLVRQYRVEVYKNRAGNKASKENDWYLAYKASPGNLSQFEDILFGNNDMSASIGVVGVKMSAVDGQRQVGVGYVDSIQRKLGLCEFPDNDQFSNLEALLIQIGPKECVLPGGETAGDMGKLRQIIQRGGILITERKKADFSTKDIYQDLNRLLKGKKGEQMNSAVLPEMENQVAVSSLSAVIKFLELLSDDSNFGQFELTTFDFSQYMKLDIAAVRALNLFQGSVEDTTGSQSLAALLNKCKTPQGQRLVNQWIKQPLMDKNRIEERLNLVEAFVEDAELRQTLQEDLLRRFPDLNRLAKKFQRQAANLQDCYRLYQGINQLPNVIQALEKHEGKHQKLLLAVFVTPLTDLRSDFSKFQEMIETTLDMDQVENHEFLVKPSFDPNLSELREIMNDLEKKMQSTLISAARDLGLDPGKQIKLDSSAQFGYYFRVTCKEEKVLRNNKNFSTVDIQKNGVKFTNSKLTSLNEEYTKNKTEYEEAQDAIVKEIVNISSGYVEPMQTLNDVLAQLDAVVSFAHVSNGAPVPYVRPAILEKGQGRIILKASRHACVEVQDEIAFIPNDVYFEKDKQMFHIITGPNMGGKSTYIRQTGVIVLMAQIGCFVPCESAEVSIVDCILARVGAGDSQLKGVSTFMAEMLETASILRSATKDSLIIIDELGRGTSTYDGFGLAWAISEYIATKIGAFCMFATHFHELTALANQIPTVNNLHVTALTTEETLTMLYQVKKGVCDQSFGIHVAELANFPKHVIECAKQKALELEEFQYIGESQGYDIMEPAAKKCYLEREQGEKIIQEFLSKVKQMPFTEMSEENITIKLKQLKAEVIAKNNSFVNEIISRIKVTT
MSH2–MSH6 heterodimer, sequence (P52701 whole entry, chain 2 of 2): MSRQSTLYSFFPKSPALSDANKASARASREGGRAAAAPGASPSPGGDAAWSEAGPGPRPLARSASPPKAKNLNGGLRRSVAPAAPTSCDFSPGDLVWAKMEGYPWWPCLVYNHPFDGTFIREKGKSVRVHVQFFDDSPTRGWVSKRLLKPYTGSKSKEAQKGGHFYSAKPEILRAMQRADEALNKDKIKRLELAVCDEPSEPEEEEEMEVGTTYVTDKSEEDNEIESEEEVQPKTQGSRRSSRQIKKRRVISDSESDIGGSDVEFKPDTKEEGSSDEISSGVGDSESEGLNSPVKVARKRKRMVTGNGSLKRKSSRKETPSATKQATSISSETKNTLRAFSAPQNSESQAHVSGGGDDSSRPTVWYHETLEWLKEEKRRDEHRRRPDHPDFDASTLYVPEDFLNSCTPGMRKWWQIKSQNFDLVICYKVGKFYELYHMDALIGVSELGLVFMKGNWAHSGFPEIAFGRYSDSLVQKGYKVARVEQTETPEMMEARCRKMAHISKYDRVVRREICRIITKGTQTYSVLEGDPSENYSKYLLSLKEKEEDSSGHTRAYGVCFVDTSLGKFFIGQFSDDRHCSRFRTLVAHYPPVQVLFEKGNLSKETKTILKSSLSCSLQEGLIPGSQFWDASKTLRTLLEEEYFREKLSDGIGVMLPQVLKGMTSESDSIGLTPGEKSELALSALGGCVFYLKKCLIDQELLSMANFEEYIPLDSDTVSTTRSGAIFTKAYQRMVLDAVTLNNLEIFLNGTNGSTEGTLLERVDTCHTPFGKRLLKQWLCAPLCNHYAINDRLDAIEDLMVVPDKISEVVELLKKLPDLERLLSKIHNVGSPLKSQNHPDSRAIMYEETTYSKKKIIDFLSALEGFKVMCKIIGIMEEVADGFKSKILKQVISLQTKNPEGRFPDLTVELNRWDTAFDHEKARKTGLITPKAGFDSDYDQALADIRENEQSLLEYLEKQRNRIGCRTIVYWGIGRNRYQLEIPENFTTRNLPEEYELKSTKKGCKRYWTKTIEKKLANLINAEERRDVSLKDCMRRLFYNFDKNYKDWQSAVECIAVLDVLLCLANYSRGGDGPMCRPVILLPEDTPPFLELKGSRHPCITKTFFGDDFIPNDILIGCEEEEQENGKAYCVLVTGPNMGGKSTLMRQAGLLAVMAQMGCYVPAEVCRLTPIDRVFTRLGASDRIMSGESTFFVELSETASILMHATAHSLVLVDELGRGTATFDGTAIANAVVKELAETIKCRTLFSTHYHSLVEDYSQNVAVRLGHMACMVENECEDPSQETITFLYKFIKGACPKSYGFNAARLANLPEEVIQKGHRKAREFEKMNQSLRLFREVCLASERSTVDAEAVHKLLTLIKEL

MSH2–MSH3 heterodimer, sequence (P43246 whole entry, chain 1 of 2): as the sequence (P43246 whole entry, chain 1 of 2) above
MSH2–MSH3 heterodimer, sequence (P20585 whole entry, chain 2 of 2): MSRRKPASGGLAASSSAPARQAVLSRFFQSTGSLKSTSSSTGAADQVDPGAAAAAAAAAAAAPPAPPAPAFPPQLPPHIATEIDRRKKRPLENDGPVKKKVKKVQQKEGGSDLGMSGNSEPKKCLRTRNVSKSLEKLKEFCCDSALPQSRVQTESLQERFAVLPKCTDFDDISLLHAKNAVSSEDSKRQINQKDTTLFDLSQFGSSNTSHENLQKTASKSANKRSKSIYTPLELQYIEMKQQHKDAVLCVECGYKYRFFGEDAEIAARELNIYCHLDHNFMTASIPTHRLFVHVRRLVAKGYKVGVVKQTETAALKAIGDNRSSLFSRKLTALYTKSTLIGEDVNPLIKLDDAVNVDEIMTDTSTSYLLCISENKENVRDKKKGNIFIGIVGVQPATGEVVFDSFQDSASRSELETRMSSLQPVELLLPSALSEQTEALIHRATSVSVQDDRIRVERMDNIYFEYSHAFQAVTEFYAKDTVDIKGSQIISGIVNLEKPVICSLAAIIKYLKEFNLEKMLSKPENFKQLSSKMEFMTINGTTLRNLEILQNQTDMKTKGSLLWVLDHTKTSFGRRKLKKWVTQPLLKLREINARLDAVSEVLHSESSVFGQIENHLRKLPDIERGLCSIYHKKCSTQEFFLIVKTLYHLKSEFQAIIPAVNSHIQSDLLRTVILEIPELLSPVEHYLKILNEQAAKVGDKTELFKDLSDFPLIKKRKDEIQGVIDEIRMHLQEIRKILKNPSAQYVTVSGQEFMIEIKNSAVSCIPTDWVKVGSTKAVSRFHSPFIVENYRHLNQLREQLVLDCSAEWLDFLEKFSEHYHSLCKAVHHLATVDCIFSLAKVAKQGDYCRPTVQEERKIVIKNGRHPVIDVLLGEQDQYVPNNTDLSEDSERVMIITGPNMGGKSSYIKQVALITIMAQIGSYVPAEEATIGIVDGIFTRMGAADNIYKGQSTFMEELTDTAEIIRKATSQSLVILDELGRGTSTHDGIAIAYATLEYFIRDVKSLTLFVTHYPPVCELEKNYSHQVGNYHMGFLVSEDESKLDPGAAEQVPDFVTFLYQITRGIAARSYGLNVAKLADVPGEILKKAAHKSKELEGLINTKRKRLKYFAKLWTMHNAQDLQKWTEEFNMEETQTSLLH

B1: recombinant human DNA polymerase η, (His)6-tagged (enzyme, UniProt Q9Y253 1-713, looked up)
chain: MATGQDRVVALVDMDCFFVQVEQRQNPHLRNKPCAVVQYKSWKGGGIIAVSYEARAFGVTRSMWADDAKKLCPDLLLAQVRESRGKANLTKYREASVEVMEIMSRFAVIERASIDEAYVDLTSAVQERLQKLQGQPISADLLPSTYIEGLPQGPTTAEETVQKEGMRKQGLFQWLDSLQIDNLTSPDLQLTVGAVIVEEMRAAIERETGFQCSAGISHNKVLAKLACGLNKPNRQTLVSHGSVPQLFSQMPIRKIRSLGGKLGASVIEILGIEYMGELTQFTESQLQSHFGEKNGSWLYAMCRGIEHDPVKPRQLPKTIGCSKNFPGKTALATREQVQWWLLQLAQELEERLTKDRNDNDRVATQLVVSIRVQGDKRLSSLRRCCALTRYDAHKMSHDAFTVIKNCNTSGIQTEWSPPLTMLFLCATKFSASAPSSSTDITSFLSSDPSSLPKVPVTSSEAKTQGSGPAVTATKKATTSLESFFQKAAERQKVKEASLSSLTAPTQAPMSNSPSKPSLPFQTSQSTGTEPFFKQKSLLLKQKQLNNSSVSSPQQNPWSNCKALPNSLPTEYPGCVPVCEGVSKLEESSKATPAEMDLAHNSQSMHASSASKSVLEVTQKATPNPSLLAAEDQVPCEKCGSLVPVWDMPEHMDYHFALELQKSFLQPHSSNPQVVSAVSHQGKRNPKSPLACTNKRPRPEGMQTLESFFKPLTH
Take B1: the Kd came out at 7.4 ± 1 nM with MSH2–MSH3 heterodimer and 6.5 ± 0.8 nM with MSH2–MSH6 heterodimer.
